Consider two molecules from publication PMC2726290, “Decoding of Methylated Histone H3 Tail by the Pygo-BCL9 Wnt Signaling Complex” (Molecular Cell, 2008).

Numbering of substitutions follows the chain as printed. Numbers in names are those of the source.

This test has as its system pygo null mutant clones in wing discs. Put plainly: Rescue assays in Drosophila pygo null mutant clones. Format: in vivo. The settings on record: for rescue of pygo mutant phenotypes (notches and bristle defects): anterior wing margin of adult flies bearing pygo mutant clones, overexpression; for rescue of senseless expression: overexpression by GAL4 system in pygo null mutant wing disc clones, third instar larvae. The text has this: To test whether the binding of Pygo to H3K4me is important for its function in vivo, we conducted rescue assays in Drosophila ([de la Roche and Bienz, 2007]). We introduced a point mutation into V757 (in EVND) of Drosophila Pygo, which corresponds to V350 of hPHD that lines its K4me pocket (Figure 4B) and whose mutation drastically reduces its binding to H3K4me3 (Figure 4E). We then generated pygo null mutant clones in wing discs, one of the best-characterized Wingless-responsive tissues whose development depends on Pygo function ([Belenkaya et al., 2002; de la Roche and Bienz, 2007; Kramps et al., 2002; Parker et al., 2002; Thompson et al., 2002]), and we used the GAL4 system to overexpress the Pygo-V757E mutant in these clones, to test its rescue activity in this tissue.
HA-tagged Pygo-V757E was constructed in pUAST, and multiple independent transformant lines were isolated, as described previously for WT HA-Pygo ([Townsley et al., 2004b]). Two different lines were each tested for rescue activity of pygo null mutant clones in the wing disc, as described ([de la Roche and Bienz, 2007]).

B1: WT Pygo: overexpressed wild-type HA-tagged Drosophila Pygo (protein, UniProt Q9V9W8 1-815, looked up)
Protein pygopus: MTHNLGMAPYRLPGPAGGLCPPDFKPPPPTDIISAPSNPKKRRKTSSAANSAAAVAAAAAAAAAANSMQQQQAPPTPQDLLPPPPMGGFGDTIIASNPFDDSPQVSAMSSSAAAAMAAMNQMGGGPGGGHFGGGGPGGHPHWEDRMGMGGGPPPPPHMHPHMHPHHPGGPMGHPHGPHPHMGGPPPMRGMSPMHPHQMGPGPGVGLPPHMNHGRPGGPGGPGGPVPMGSPMGGIAGMGGMSPMGGMGGPSISPHHMGMGGLSPMGGGPNGPNPRAMQGSPMGGPGQNSPMNSLPMGSPMGNPIGSPLGPPSGPGPGNPGNTGGPQQQQQQPPQPPMNNGQMGPPPLHSPLGNGPTGHGSHMPGGPIPGPGPGPGGLVGPGGISPAHGNNPGGSGNNMLGGNPGGGNSNNNGSNTSNASNNNQNPHLSPAAGRLGVPTSMQSNGPSVSSVASSSVPSPATPTLTPTSTATSMSTSVPTSSPAPPAMSPHHSLNSAGPSPGMPNSGPSPLQSPAGPNGPNNNNSNNNNGPMMGQMIPNAVPMQHQQHMGGGPPGHGPGPMPGMGMNQMLPPQQPSHLGPPHPNMMNHPHHPHHHPGGPPPHMMGGPGMHGGPAGMPPHMGGGPNPHMMGGPHGNAGPHMGHGHMGGVPGPGPGPGGMNGPPHPHMSPHHGHPHHHHNPMGGPGPNMFGGGGGGPMGPGGPMGNMGPMGGGPMGGPMGVGPKPMTMGGGKMYPPGQPMVFNPQNPNAPPIYPCGMCHKEVNDNDEAVFCESGCNFFFHRTCVGLTEAAFQMLNKEVFAEWCCDKCVSSKHIPMVKFKC
modifications: HA tag
B1: the “rescue of pygo mutant phenotypes (notches and bristle defects)” value is listed as “rescued all pygo mutant phenotypes”; the “rescue of senseless expression” value was “restored expression of senseless”.

B2: Pygo-V757E: HA-tagged Drosophila Pygo with point mutation in V757 (in EVND) (protein, UniProt Q9V9W8 1-815, looked up, variant V757E)
Protein pygopus: B1 Protein pygopus with V757E
modifications: HA tag
For the molecule B2, the “rescue of pygo mutant phenotypes (notches and bristle defects)” value was “WT Pygo but not Pygo-V757E rescued all pygo mutant phenotypes”; the “rescue of senseless expression” value is on record as “no rescue whatsoever was observed”.
